Where “and” joins values, the source holds several entries; their conditions need not be identical. Equal values may be shown once. Blank lines part the entries; values can stand above or below the molecule they belong to.
How the values were obtained:
[1] = molecular target: Cyt2-NADP-ME from maize extracts (maize (endogenous in maize etiolated leaves and roots)); experiment: native gel or EMSA; native PAGE (7%) of maize extracts of etiolated leaves and roots; in-gel NADP-ME activity assay, active bands excised and identified by mass spectrometry; mobility compared with the recombinant proteins
[2] = molecular target: Cyt1-NADP-ME from maize extracts (maize (endogenous in maize etiolated leaves and roots)); experiment: as above
[3] = molecular target: maize nonC4-NADP-malic enzyme, recombinant wild type (maize (Zea mays)); experiment: native gel or EMSA; native PAGE (6% or 7%) of purified recombinant proteins, 100 V, 4 °C; Coomassie staining or in-gel NADP-ME activity assay; oligomeric state from mobility against native markers
[4] = molecular target: maize nonC4-NADP-malic enzyme, recombinant wild type (maize (Zea mays)); experiment: as above; remark: listed apart in the source
[5] = molecular target: maize nonC4-NADP-malic enzyme, recombinant wild type (maize (Zea mays)); experiment: AUC; sedimentation velocity of recombinant proteins; 20 mM Tris-HCl pH 7.0 or 8.0, 5 mM MgCl2; 1.1 mg/ml (16 uM); 20 °C, 35,000 rpm; c(s) model in SEDFIT; self-association, dimers and tetramers
[6] = molecular target: maize nonC4-NADP-malic enzyme, recombinant wild type (maize (Zea mays)); experiment: cryo-EM structure; single-particle cryo-EM of His-tagged proteins, 0.2 to 0.5 mg/ml, 20 mM Tris-HCl, 5 mM MgCl2, 40 mM pyruvate, 2 mM NADP, pH 8.0; oligomeric state from the numbers of particles
[7] = molecular target: the molecule itself; experiment: AUC; sedimentation velocity of recombinant proteins; 20 mM Tris-HCl pH 7.0 or 8.0, 5 mM MgCl2; 1.1 mg/ml (16 uM); 20 °C, 35,000 rpm; c(s) model in SEDFIT; self-association, dimers and tetramers
[8] = molecular target: the molecule itself; experiment: native gel or EMSA; native PAGE (7%) of maize extracts of etiolated leaves and roots; in-gel NADP-ME activity assay, active bands excised and identified by mass spectrometry; mobility compared with the recombinant proteins

B1: maize C4-NADP-malic enzyme, recombinant wild type (enzyme, maize (Zea mays), UniProt P16243 63-636, looked up)
chain: MVSNAETETEKEQEEAAAASEELPVMPWATSVASGYTLLRDPHHNKGLAFTEEERDGHYLRGLLPPAVLSQELQIKKFMNTLRQYQTPLQRYIAMMNLQETDERLFYKLLIDNVVELLPFVYTPTVGEACQKYGSIFGRPQGLYVSLKDKGKVLEVLRNWPHRNIQVICVTDGERILGLGDLGCQGMGIPVGKLALYTALGGVDPSVCLPITIDVGTNNEFLLNDEFYIGLRQKRATGEEYDELIEEFMSAVKQFYGEKVLIQFEDFANHNAFDLLEKYSKSHLVFNDDIQGTASVVLAGLLAALKMVGGTLAEQTYLFLGAGEAGTGIAELIALEISKQTNAPIEECRKKVWLVDSKGLIVDSRKGSLQPFKKPWAHEHEPLKTLYDAVQSIKPTVLIGTSGVGRTFTKEIIEAMSSFNERPIIFSLSNPTSHSECTAEQAYTWSQGRSIFASGSPFAPVEYEGKTFVPGQSNNAYIFPGLGLGLVISGAVRVHEDMLLAASKALADQATQDNFEKGSIFPPFTSIRKISAHIAAAVAGKAYELGLATRLPPPSDLVKYAENCMYTPVYRNYR
notes: C4-NADP-malic enzyme (ZmC4-NADP-ME), plastidic C4 isoform of maize; construct of Alvarez et al. 2019; Vector pET16b::ZmC4-NADP-ME (Alvarez et al. 2019); also called C4-NADP-ME; ZmC4-NADP-ME; source: E. coli Rosetta2 (DE3) or ArcticExpress (DE3), purified (Ni-NTA)
- stoichiometry N [7]: 4

B2: C4-NADP-ME from maize extracts (enzyme, UniProt P16243 63-636, looked up)
chain: B1 chain
notes: C4-NADP-malic enzyme, plastidic C4 isoform of maize, identified by mass spectrometry in an active band of a native gel; source: endogenous, extracts of maize etiolated leaves and roots
- stoichiometry N [8]: 4

Other lines, results leading:

- stoichiometry N [1]: 4
Molecule: Cyt2-NADP-ME from maize extracts (enzyme)

- stoichiometry N [2]: 4
Molecule: Cyt1-NADP-ME from maize extracts (enzyme)

- stoichiometry N [3]: 4
- stoichiometry N [4]: 2
- stoichiometry N [5]: 2 and 4
- percent tetramers [6]: 10%
- stoichiometry N [6]: 2
Molecule: maize nonC4-NADP-malic enzyme, recombinant wild type

Reference: article PMC13100509, “A milestone in C4 carbon concentration mechanism evolution: structural remodeling of NADP-malic enzyme in Poaceae” (Molecular Biology and Evolution, 2026)
